Data as given in PMC7687889, “Molecular basis of EphA2 recognition by gHgL from gammaherpesviruses” (Nature Communications, 2020).

Biological target: T1, KSHV glycoprotein L (gL), residues 21-167 (Kaposi sarcoma-associated herpesvirus …, UniProt F5HDB7 21-167)
T1 construct: source: High Five cells (baculovirus), secreted with gH, purified (HisTrap, Resource S, Superdex 200)
Assay: crystal structure; KSHV gHgL-LBD complex, mixed on ice 1 h and purified on Superdex 200 Increase; 3.2 Å
Settings: both partners purified

B1: KSHV glycoprotein H (gH), residues 22-698 (domain or fragment)
chain: ATGALPTTATTITRSATQLINGRTNLSIELEFNGTSFFLNWQNLLNVITEPALTELWTSAEVAEDLRVTLKKRQSLFFPNKTVVISGDGHRYTCEVPTSSQTYNITKGFNYSALPGHLGGFGINARLVLGDIFASKWSLFARDTPEYRVFYPMNVMAVKFSISIGNNESGVALYGVVSEDFVVVTLHNRSKEANETASHLLFGLPDSLPSLKGHATYDELTFARNAKYALVAILPKDSYQTLLTENYTRIFLNMTESTPLEFTRTIQTRIVSIEARRACAAQEAAPDIFLVLFQMLVAHFLVARGIAEHRFVEVDCVCRQYAELYFLRRISRLCMPTFTTVGYNHTTLGAVAATQIARVSATKLASLPRSSQETVLAMVQLGARDGAVPSSILEGIAMVVEHMYTAYTYVYTLGDTERKLMLDIHTVLTDSCPPKDSGVSEKLLRTYLMFTSMCTNIELGEMIARFSKPDSLNIYRAFSPCFLGLRYDLHPAKLRAEAPQSSALTRTAVARGTSGFAELLHALHLDSLNLIPAINCSKITADKIIATVPLPHVTYIISSEALSNAVVYEVSEIFLKSAMFISAIKPDCSGFNFSQIDRHIPIVYNISTPRRGCPLCDSVIMSYDESDGLQSLMYVTNERVQTNLFLDKSPFFDNNNLHIHYLWLRDNGTVVEIRGMY
notes: also called KSHV gH; source: High Five cells (baculovirus), secreted with gL, purified (HisTrap, Resource S, Superdex 200)
binding result: binds
